Key:
[1] = molecular target: AgrA full length (AgrAFL) (Staphylococcus aureus) (UniProt P0A0I7); assay: BLI; AgrAFL (ligand) immobilised on amine reactive 2nd generation (AR2G) tips; AgrC proteins as analytes at different concentrations; 20 mM HEPES pH 7.6, 200 mM KCl, 2% glycerol; AgrC proteins incubated separately with 5 uM DTT and H2O2; Octet Data Analysis Software v 8.0
[2] = molecular target: AgrA full length (AgrAFL) (Staphylococcus aureus) (UniProt P0A0I7); assay: BLI; H2O2; conditions: domain or fragment
[3] = molecular target: AgrA full length (AgrAFL) (Staphylococcus aureus) (UniProt P0A0I7); assay: BLI; conditions: domain or fragment
[4] = molecular target: AgrA full length (AgrAFL) (Staphylococcus aureus) (UniProt P0A0I7); assay: BLI; DTT; conditions: domain or fragment
[5] = molecular target: T1, AgrA full length (AgrAFL) (Staphylococcus aureus, UniProt P0A0I7 1-238); assay: BLI
T1 chain: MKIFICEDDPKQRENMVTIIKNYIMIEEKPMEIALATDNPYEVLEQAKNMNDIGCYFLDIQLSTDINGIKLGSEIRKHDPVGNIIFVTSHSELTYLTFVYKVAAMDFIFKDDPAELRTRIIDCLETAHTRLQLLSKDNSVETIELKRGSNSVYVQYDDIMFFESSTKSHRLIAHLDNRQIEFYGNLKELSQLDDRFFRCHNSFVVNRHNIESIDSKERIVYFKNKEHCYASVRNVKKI

[6] = molecular target: T1, AgrA full length (AgrAFL); assay: BLI; H2O2
[7] = molecular target: T1, AgrA full length (AgrAFL); assay: BLI; DTT

Molecule: recombinant AgrC Y223C protein (domain or fragment)
- fold reduction in binding affinity against wild-type AgrC [1]: < 10 fold

Molecule: recombinant AgrC Y223C protein
- Kd [2]: 31.4 nM
- Kd [3]: 105 nM
- Kd [4]: 44.9 nM

B1: recombinant wild-type AgrC (cytosolic domain) (domain or fragment)
chain: KEMKYKRNQEEIETYYEYTLKIEAINNEMRKFRHDYVNILTPLSEYIREDDMPGLRDYFNKNIVPMKDNLQMNAIKLNGIENLKVREIKGLITAKILRAQEMNIPISIEIPDEVSSINLNMIDLSRSIGIILDNAIEASTEIDDPIIRVAFIESENSVTFIVMNKCADDIPRIHELFQESFSTKGEGRGLGLSTLKEIADNADNVLLDTIIENGFFIQKVEIINN
- Kd [5]: 93.1 nM
- Kd [6]: 4.21 nM
- Kd [7]: 99.8 nM
